# Patent US11161908
# Biological target: human BAFF-R-GFP fusion protein expressed on the surface of mouse fibroblast (L) cells, clone D2C (human) (UniProt Q96RJ3)
# Assay: flow cytometry, recombinant BAFF at 0.5 ug/10^6 D2C L cells, detected with anti-BAFF-PE, no antibody; unstained cells: 0.0217
substance,measurement,value
recombinant BAFF ligand (from UniProt Q9Y275 134-285),percent of cells in the BAFF-PE gate,59.6%
